Here are results for two molecules from paper PMC8835842, “YdfD, a Lysis Protein of the Qin Prophage, Is a Specific Inhibitor of the IspG-Catalyzed Step in the MEP Pathway of Escherichia coli” (International Journal of Molecular Sciences, 2022).

B1: IspG-His (enzyme, E. coli BL21(DE3), UniProt P62620 1-372, looked up)
chain: MHNQAPIQRRKSTRIYVGNVPIGDGAPIAVQSMTNTRTTDVEATVNQIKALERVGADIVRVSVPTMDAAEAFKLIKQQVNVPLVADIHFDYRIALKVAEYGVDCLRINPGNIGNEERIRMVVDCARDKNIPIRIGVNAGSLEKDLQEKYGEPTPQALLESAMRHVDHLDRLNFDQFKVSVKASDVFLAVESYRLLAKQIDQPLHLGITEAGGARSGAVKSAIGLGLLLSEGIGDTLRVSLAADPVEEIKVGFDILKSLRIRSRGINFIACPTCSRQEFDVIGTVNALEQRLEDIITPMDVSIIGCVVNGPGEALVSTLGVTGGNKKSGLYEDGVRKDRLDNNDMIDQLEARIRAKASQLDEARRIDVQQVEK
notes: ispG amplified from the E. coli BL21(DE3) genome; also called His-tagged ispG; GcpE; source: E. coli BL21(DE3); coexpressed with YdfD constructs, in lysate; and purified (Ni-NTA, Superdex 200)
B2: YdfD (MBP tag cleaved) (natural protein, E. coli BL21(DE3), UniProt P29010 1-63, looked up)
chain: MNSAFVLVLTVFLVSGEPVDIAVSVHRTMQECMTAATEQKIPGNCYPVDKVIHQDNIEIPAGL
notes: YdfD, lysis protein of the Qin cryptic prophage, 63 amino acids; ydfD amplified from the E. coli BL21(DE3) genome; No truncation is told for this construct; source: E. coli BL21(DE3), purified as MBP-YdfD (amylose resin), MBP cleaved by PreScission protease; not shown: MBP, N-terminal, cleaved

The assay “YdfD (MBP tag cleaved)” addresses B2. Put plainly: ITC; IspG (1.1 mM) injected into YdfD in the cell, 2 μL injections at 120 s spacing, 25 °C, 20 mM Tris, 150 mM NaCl, pH 8.0; one-site binding fit. The note with it: both partners purified. In general terms: Isothermal titration calorimetry measures the heat released or taken up as one component is titrated into another.
The assay “IspG-His” has as its target B1. Described as above. The note with it: both partners purified.

One may read the stoichiometry N as a count of units in the complex or per binding partner. For the molecule B1, in the assay with YdfD (MBP tag cleaved), the dH is 1.57 kcal/mol and the “stoichiometry N” value stood at 0.63.

The term Kd denotes the constant that tells how readily two partners part at equilibrium. High values mean lower affinity, low ones higher affinity. B2 gave a Kd in the assay with IspG-His of 18.4 µM.
